Reference: patent US20080093219A1

Target: T4 tail-fiber protein P37 SΔ1ras2 (gene 37 SΔ1 deletion with the H-ras mAb epitope inserted at the junction), on SΔ1ras2 phage (bacteriophage T4; bacteriophage T4 with human H-ras insert) (UniProt P03744)
Test: cell-based or functional assay

Substance: rat monoclonal IgG antibody Y13-259
- phage inactivated after mAb and anti-rat IgG serum: 85%
- phage inactivated, control treatment (mAb with buffer only): 99.8%
- phage inactivation, time course of mAb treatment: 99.9%
